Source: article PMC3189207 (2011)

T1: APC (Homo sapiens)
T1 chain: HSGSYLVTSV

T2: ABR (Homo sapiens)
T2 chain: RNTLYFSTDV

T3: ZNF654 (Homo sapiens)
T3 chain: SSAQPSETIL

T4: ZO2 (Homo sapiens)
T4 chain: QSARYDTEL

T5: AHDC1 (Homo sapiens)
T5 chain: PEDTFTVTSL

T6: ANKS4B (Homo sapiens)
T6 chain: QPGQLVDTSL


Key:
Assay in all cases: fluorescence polarization
[1] = target: T1, APC
[2] = target: T2, ABR
[3] = target: T3, ZNF654
[4] = target: T4, ZO2
[5] = target: T5, AHDC1
[6] = target: T6, ANKS4B

Row | Binder | Kd [1] [µM] | Kd [2] [µM] | Kd [3] [µM] | Kd [4] [µM] | Kd [5] [µM] | Kd [6] [µM]
1 | Scrib PDZ2 (protein) QRHVACLARSERGLGFSIAGGKGSTPYRAGDAGIFVSRIAEGGAAHRAGTLQVGDRVLSINGVDVTEARHDHAVSLLTAASPTIALLLEREAGGP | 9.5 | 10.4 | 32.1 | – | – | –
2 | Scrib PDZ3 (protein) PVEEIRLPRAGGPLGLSIVGGSDHSSHPFGVQEPGVFISKVLPRGLAARSGLRVGDRILAVNGQDVRDATHQEAVSALLRPCLELSLLVRRDPAPP | 6.7 | 2.9 | 18.3 | 13.7 | 10.4 | 28.2
3 | Scrib PDZ1 (protein) not shown | 12.3 | 12.5 | – | 16 | 19.2 | –
